Test results reported in the RNAGym collection of RNA variant scans (doi:10.7554/elife.80360).

B1: CPEB3 Ribozyme (parent)
chain: GGGGGCCACAGCAGAAGCGUUCACGUCGCGGCCCCUGUCAGAUUCUGGUGAAUCUGCGAAUUCUGCUGU

Variants of: B1
Assay: self-cleavage, relative activity (ratio to wild type); higher = more cleavage; co-transcriptional

Variant | self-cleavage
GGGGGCCGCAGCAGAAGCGUUCACGUCGCGGCCCCUGUCAGAUUCUGGUGAAUUUGCGAAUUCUGCUGU | 0.805
GGGGGCCGCAGCAGAAGCGUUCACGUCGCGGCCCCUGUCAGAUUCUGGUGAAUGUGCGAAUUCUGCUGU | 0.343
GGGGGCCGCAGCAGAAGCGUUCACGUCGCGGCCCCUGUCAGAUUCUGGUGAAUAUGCGAAUUCUGCUGU | 0.331
GGGGGCCGCAGCAGAAGCGUUCACCUCGCGGCCCCUGUCAGAUUCUGGUGAAUCUGCGAAUUCUGCUGU | 0.0474
GGGGGCCGCAGCAGAAGCGUUCACUUCGCGGCCCCUGUCAGAUUCUGGUGAAUCUGCGAAUUCUGCUGU | 0.1
GGGGGCCGCAGCAGAAGCGUUCACAUCGCGGCCCCUGUCAGAUUCUGGUGAAUCUGCGAAUUCUGCUGU | 0.113
GGGGGCCGCAGCAGAAGCGUUCACGUCGCGGCCCCUGUCAGAUUUUGGUGAAUCUGCGAAUUCUGCUGU | 0.8
GGGGGCCGCAGCAGAAGCGUUCACGUCGCGGCCCCAGUCAGAUUCUGGUGAAUCUGCGAAUUCUGCUGU | 0.135
GGGGGCCGCAGCAGAAGCGUUCACGUCGCGGCCCCUGUCAGAUUCUGGUGAAGCUGCGAAUUCUGCUGU | 0.646
GGGGGCCGCACCAGAAGCGUUCACGUCGCGGCCCCUGUCAGAUUCUGGUGAAUCUGCGAAUUCUGCUGU | 0.0914
GGGGGCCGCAUCAGAAGCGUUCACGUCGCGGCCCCUGUCAGAUUCUGGUGAAUCUGCGAAUUCUGCUGU | 0.189
GGGGGCCGCAACAGAAGCGUUCACGUCGCGGCCCCUGUCAGAUUCUGGUGAAUCUGCGAAUUCUGCUGU | 0.26
GGGGGCCGCAGCAGAAGCGUUCACGUCGCGGCCCCUGUCAGAUUCUGGUGAAUCUGCGAAUCCUGCUGU | 0.253
GGGGGCCGCAGCAGAAGCGUUCACGUCGCGGCCCCUGUCAGAUUCUGGUGAAUCUGCGAAUACUGCUGU | 0.394
GGGGGCCGCAGCAGAAGCGUUCACGUCGCGGCCCCUGCCAGAUUCUGGUGAAUCUGCGAAUUCUGCUGU | 0.696
GGGGGCCGCAGCAGAAGCGUUCACGUCGCGACCCCUGUCAGAUUCUGGUGAAUCUGCGAAUUCUGCUGU | 0.865
GGGGGCCGCAGCAGAAGCGUUCACGUCGCGUCCCCUGUCAGAUUCUGGUGAAUCUGCGAAUUCUGCUGU | 0.649
GGGGGCCGCAGCAGAAGCGUUCACGUCGCGGCCCCUGUCAGAUUCUGGUCAAUCUGCGAAUUCUGCUGU | 0.791
GGGGGCCGCAGCAGAAGCGUUCACGUCGCGGCCCCUGUCAGAUUCUGGUGAAUCUGCGAAGUCUGCUGU | 0.284
GGGGGCCGCAGCAGAAGCGUUCACGUCGCGGCCCCUGUCAGAUUCUGGUGAAUCUGCGAACUCUGCUGU | 0.142

Variant | self-cleavage
GGGGGCCGCAGCAGAAGCGUUCACGUCGCGGCCCCUGUCAGAUUCUGGUGAAUCUGCGAAUUCUACUGU | 0.224
GGGGGCCGCAGCAGAAGCGUUCACGUCGCGGCCCCUCUCAGAUUCUGGUGAAUCUGCGAAUUCUGCUGU | 0.123
GGGGGCCGCAGCAGAAGCGUUCACGUCGCGGCCCCUGUCAGAUCCUGGUGAAUCUGCGAAUUCUGCUGU | 0.55
GGGGGCCGCAGCAGAAGCGUUCACGGCGCGGCCCCUGUCAGAUUCUGGUGAAUCUGCGAAUUCUGCUGU | 0.622
GGGGGCCGCAGCAGAAGCGUUCACGACGCGGCCCCUGUCAGAUUCUGGUGAAUCUGCGAAUUCUGCUGU | 0.644
GGGGGCCGCAGCAGAAGCGUUCACGCCGCGGCCCCUGUCAGAUUCUGGUGAAUCUGCGAAUUCUGCUGU | 0.325
GGGGGCCGCAGCAGAAGCGUUCACGUCGCGGCCCCUGUCAGAUUCUGGUGAAUCUGCGAAUUGUGCUGU | 0.164
GGGGGCCGCAGCAGAAGCGUUCACGUCGCGGCCCCUGUCAGAUUCUGGUGAAUCUGCGAAUUUUGCUGU | 0.612
GGGGGCCGCAGCAGAAGCGUUCACGUCGCGGCCCCUGUCAGAUUCUGGUGAAUCUGCGAAUUAUGCUGU | 0.253
GGGGGCCGCAGCAGAAGCGUUCACGUCGCGGCCCCUGUCAGAUUCUGGCGAAUCUGCGAAUUCUGCUGU | 0.828
GGGGGCCGCAGCAGAAGCGUUCACGUCGCGGCCCCUGUCAGAUUCUGGGGAAUCUGCGAAUUCUGCUGU | 0.895
GGGGGCCGCAGCAGAAGCGUUCACGUCGCGGCCCCUGUCAGAUUCUGGAGAAUCUGCGAAUUCUGCUGU | 0.938
GGGGGCCGCAGCAGAAGCGUUCACGUCGCGGCCCCUGUCAGAUUCUGAUGAAUCUGCGAAUUCUGCUGU | 0.939
GGGGGCCGCAGCAGAAGCGUUCACGUCGCGGCCCCUGUCAGAUUCUGUUGAAUCUGCGAAUUCUGCUGU | 0.943
GGGGGCCGCAGCAGAAGCGUUCACGUCGCGGCCCCUGUCAGAUUCUGGUGAAUCGGCGAAUUCUGCUGU | 0.134
GGGGGCCGCAGCAGAAGCGUUCACGUCGCGGCCCCUGUCAGAUUCUGGUGAAUCCGCGAAUUCUGCUGU | 0.282
GGGGGCCGCAGCAGAAGCGUUCACGUCGCGGCCCCUGUCAGAUUCUGGUGAAUCUGCGAAUUCUGCUAU | 0.912
GGGGGCCGCAGCAGAAGCGUUCACGUCGCGGCCCCUGUCAGAUUCUGGUGAAUCUGCGAAUUCUGCUUU | 0.841
GGGGGCCGCAGCAGAAGCGUUCACGUCGCGGCCCCUGUCAGAUUCUGGUGAAUCUGCGAAUUCUGCUCU | 0.851
